Experiments:
[1] = biological target: YF17D VLPs containing only E and M proteins (yellow fever virus, strain 17D); assay: BLI
[2] = biological target: YF17D virus particles (live-attenuated YFV 17D) (yellow fever virus, strain 17D); assay: BLI

Q: What does the source list for “Fc-tagged LRP8-LBD (LRP8 LA1237 with a C-terminal human IgG Fc) (Fc fusion)”?
A: Kd [1]: 300 nM; Kd [2]: 460 nM

From paper doi:10.1101/2025.10.28.685229
